This note sets out measurements from PMC4432644, “Molecular mechanism for USP7-mediated DNMT1 stabilization by acetylation” (Nature Communications, 2015).

Residue numbers refer to the chain shown, from its start. In names and notes the source's numbering stands.

Conditions in all cases: both partners purified
Experiment [1] has as its target T1, DNMT1^2KR (recombinant, residues 600–1,600) (human, UniProt P26358 600-1600, K1111 to Arginine | K1113 to Arginine).
T1 construct: human DNMT1, residues 600-1,600 (DNMT1 if not specified); source: E. coli Rosetta (DE3), purified
Nature of the experiment: pull-down; GST–USP7 proteins incubated with DNMT1 proteins 2 h at 4 °C in 25 mM HEPES pH 7.4, 150 mM NaCl, 5% glycerol, 0.05% Triton X-100, 1 mM DTT, then held on glutathione resin; SDS–PAGE, Coomassie.

The target in experiment [2] is T2, DNMT1^4KR (recombinant, residues 600–1,600) (human, UniProt P26358 600-1600, K1111 to Arginine | K1113 to Arginine | K1115 to Arginine | K1117 to Arginine).
T2 construct: human DNMT1, residues 600-1,600 (DNMT1 if not specified); source: E. coli Rosetta (DE3), purified
T2 sequence (P26358 other isoform, or with tags, fused parts or gaps with the stated changes): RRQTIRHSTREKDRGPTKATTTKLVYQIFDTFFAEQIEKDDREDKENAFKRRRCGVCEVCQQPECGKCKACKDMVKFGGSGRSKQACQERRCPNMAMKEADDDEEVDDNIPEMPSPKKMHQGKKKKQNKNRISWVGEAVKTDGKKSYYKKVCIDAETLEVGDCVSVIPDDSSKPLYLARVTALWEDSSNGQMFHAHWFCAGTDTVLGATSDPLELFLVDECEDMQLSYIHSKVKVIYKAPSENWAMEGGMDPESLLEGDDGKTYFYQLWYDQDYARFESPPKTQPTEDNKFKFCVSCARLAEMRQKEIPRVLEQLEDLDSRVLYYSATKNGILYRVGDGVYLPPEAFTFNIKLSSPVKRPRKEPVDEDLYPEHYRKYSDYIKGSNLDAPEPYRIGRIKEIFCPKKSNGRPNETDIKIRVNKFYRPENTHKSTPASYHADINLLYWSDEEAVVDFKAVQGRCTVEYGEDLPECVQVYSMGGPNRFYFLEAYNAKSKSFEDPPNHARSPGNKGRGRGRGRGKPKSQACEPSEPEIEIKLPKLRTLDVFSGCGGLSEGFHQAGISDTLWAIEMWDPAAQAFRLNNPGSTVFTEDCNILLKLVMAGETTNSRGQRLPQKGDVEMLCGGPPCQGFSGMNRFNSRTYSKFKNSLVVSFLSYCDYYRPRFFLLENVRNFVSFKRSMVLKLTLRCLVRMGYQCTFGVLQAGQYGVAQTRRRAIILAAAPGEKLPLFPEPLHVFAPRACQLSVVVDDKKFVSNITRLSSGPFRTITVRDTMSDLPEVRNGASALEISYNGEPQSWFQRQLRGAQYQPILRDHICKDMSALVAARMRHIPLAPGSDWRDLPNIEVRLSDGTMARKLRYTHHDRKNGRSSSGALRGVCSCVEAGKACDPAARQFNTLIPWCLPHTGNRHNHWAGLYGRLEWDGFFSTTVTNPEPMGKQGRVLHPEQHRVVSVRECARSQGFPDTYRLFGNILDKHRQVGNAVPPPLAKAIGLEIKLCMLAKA
Described as above.

In experiment [3] the target is T3, DNMT1^2KQ (recombinant, residues 600–1,600) (human, UniProt P26358 600-1600, K1111 to Glutamine | K1113 to Glutamine).
T3 construct: human DNMT1, residues 600-1,600 (DNMT1 if not specified); source: E. coli Rosetta (DE3), purified
T3 sequence (P26358 other isoform, or with tags, fused parts or gaps with the stated changes): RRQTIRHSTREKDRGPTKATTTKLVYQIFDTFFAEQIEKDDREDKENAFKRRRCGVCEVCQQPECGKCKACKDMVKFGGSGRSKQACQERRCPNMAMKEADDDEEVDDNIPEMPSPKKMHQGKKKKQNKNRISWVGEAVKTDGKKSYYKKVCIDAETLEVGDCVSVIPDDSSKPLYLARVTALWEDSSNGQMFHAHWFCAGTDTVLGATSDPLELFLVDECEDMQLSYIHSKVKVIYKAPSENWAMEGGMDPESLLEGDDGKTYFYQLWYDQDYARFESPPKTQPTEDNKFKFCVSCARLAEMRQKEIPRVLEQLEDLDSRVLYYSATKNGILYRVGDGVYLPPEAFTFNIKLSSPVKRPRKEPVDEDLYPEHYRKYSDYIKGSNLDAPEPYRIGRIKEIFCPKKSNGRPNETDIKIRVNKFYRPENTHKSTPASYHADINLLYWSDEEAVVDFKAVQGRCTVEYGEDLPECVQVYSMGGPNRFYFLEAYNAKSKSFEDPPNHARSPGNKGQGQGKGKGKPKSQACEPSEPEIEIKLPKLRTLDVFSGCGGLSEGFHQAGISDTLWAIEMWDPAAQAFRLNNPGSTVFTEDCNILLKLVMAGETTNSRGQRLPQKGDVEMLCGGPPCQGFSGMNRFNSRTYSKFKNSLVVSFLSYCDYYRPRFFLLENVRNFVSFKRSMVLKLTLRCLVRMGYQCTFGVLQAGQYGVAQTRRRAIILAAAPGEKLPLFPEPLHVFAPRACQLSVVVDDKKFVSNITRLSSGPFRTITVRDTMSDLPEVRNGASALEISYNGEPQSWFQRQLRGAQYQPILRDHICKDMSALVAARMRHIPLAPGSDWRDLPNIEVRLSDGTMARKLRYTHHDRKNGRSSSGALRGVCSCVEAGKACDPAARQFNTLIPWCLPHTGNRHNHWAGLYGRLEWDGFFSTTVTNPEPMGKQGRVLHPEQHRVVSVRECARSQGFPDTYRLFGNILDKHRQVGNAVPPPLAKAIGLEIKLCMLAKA
Described as above.

Experiment [4] concerns the target T4, DNMT1 (residues 600–1,600) (human, UniProt P26358 600-1600).
T4 construct: human DNMT1, residues 600-1,600; Modified pET-28a plasmid; also called WT DNMT1 (residues 600–1,600); source: E. coli Rosetta (DE3), purified (Ni-NTA, on-column cleavage, anion exchange, SEC)
Nature of the experiment: ITC; 0.05 mM DNMT1 (600–1,600) titrated with 0.5 mM USP7 (560–1,102); iTC200; 18 °C; 10 mM HEPES pH 8.0, 300 mM NaCl.

Experiment [5] concerns the target T4, DNMT1 (residues 600–1,600). Nature of the experiment: pull-down; GST–USP7 proteins incubated with DNMT1 proteins 2 h at 4 °C in 25 mM HEPES pH 7.4, 150 mM NaCl, 5% glycerol, 0.05% Triton X-100, 1 mM DTT, then held on glutathione resin; SDS–PAGE, Coomassie.

T4 sequence (P26358 600-1600): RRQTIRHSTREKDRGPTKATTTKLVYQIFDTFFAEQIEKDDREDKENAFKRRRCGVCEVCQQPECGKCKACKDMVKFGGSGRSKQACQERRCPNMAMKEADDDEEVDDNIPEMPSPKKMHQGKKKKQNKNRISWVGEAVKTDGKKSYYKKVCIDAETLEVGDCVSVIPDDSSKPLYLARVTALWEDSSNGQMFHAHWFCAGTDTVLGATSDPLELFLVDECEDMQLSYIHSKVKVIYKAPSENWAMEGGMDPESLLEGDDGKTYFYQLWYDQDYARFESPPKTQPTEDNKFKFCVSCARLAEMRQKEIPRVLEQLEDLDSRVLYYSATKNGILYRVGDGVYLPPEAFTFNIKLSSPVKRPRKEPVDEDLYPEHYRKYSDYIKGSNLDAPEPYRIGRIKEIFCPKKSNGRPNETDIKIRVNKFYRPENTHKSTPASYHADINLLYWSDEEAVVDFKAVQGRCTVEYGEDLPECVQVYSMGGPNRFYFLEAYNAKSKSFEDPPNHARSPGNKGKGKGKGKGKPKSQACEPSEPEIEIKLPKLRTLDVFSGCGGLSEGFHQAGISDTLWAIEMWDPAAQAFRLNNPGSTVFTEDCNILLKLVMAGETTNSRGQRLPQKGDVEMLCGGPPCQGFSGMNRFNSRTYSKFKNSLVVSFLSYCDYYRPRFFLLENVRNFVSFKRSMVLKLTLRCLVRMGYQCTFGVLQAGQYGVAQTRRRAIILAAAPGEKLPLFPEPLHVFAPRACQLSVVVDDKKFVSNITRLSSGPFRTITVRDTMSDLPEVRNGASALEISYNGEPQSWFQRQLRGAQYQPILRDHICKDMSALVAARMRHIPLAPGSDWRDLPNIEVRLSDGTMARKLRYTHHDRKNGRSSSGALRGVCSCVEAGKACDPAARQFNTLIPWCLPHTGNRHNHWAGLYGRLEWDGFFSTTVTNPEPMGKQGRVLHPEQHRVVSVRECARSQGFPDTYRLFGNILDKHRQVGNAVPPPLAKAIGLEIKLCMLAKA
T1 sequence (P26358 other isoform, or with tags, fused parts or gaps with the stated changes): as the sequence (P26358 600-1600) above, with K512R, K514R counted along it

B1: GST–TUD^USP7 (tandem UBL domains of USP7, residues 560–1,102) (domain or fragment, human, UniProt Q93009 560-1102, looked up)
chain: EAHLYMQVQIVAEDQFCGHQGNDMYDEEKVKYTVFKVLKNSSLAEFVQSLSQTMGFPQDQIRLWPMQARSNGTKRPAMLDNEADGNKTMIELSDNENPWTIFLETVDPELAASGATLPKFDKDHDVMLFLKMYDPKTRSLNYCGHIYTPISCKIRDLLPVMCDRAGFIQDTSLILYEEVKPNLTERIQDYDVSLDKALDELMDGDIIVFQKDDPENDNSELPTAKEYFRDLYHRVDVIFCDKTIPNDPGFVVTLSNRMNYFQVAKTVAQRLNTDPMLLQFFKSQGYRDGPGNPLRHNYEGTLRDLLQFFKPRQPKKLYYQQLKMKITDFENRRSFKCIWLNSQFREEEITLYPDKHGCVRDLLEECKKAVELGEKASGKLRLLEIVSYKIIGVHQEDELLECLSPATSRTFRIEEIPLDQVDIDKENEMLVTVAHFHKEVFGTFGIPFLLRIHQGEHFREVMKRIQSLLDIQEKEFEKFKFAIVMMGRHQYINEDEYEVNLKDFEPQPGNMSHPRPWLGLDHFNKAPKRSRYTYLEKAIKIHN
notes: Modified pGEX-6P-1 plasmid; also called GST–USP7 (truncation); wild-type GST–TUD^USP7; source: E. coli BL21(DE3), purified
Regarding B1, the binding result in experiment [1], in experiment [2] and in experiment [3] was “binds” each time.

B2: USP7 (residues 560–1,102), tag removed (domain or fragment, human, UniProt Q93009 560-1102, looked up)
chain: B1 chain
notes: The methods name a modified pGEX-6P-1 plasmid but a Ni-NTA purification with on-column cleavage; also called TUD^USP7; source: E. coli BL21(DE3), purified (Ni-NTA, on-column cleavage, anion exchange, SEC)
Consider B2, for which the affinity in experiment [4], expressed as Kd, was 600 nM.

B3: GST–TUD^USP7 E744A (domain or fragment, human, UniProt Q93009 560-1102, looked up)
chain: B1 chain with E185A
notes: also called E744A^USP7; source: E. coli BL21(DE3), purified
Take B3: in experiment [5], the binding result is “binds”.

B4: GST–TUD^USP7 D762A (domain or fragment, human, UniProt Q93009 560-1102, looked up)
chain: B1 chain with D203A
notes: also called D762A^USP7; source: E. coli BL21(DE3), purified
B4: the binding result in experiment [5] is on record as “binds”.
